Data on 29 molecules can be found in patent US20240409645A1 (DUALYX, published 2024).

Changes are numbered by the printed parent chain.

To fix the notation:
T1: human IL-2Rβ (human, UniProt P14784 27-240, limits assumed)
T1 construct: recombinant protein, coated or immobilised; also called hu IL-2R; IL-2R beta
T1 sequence: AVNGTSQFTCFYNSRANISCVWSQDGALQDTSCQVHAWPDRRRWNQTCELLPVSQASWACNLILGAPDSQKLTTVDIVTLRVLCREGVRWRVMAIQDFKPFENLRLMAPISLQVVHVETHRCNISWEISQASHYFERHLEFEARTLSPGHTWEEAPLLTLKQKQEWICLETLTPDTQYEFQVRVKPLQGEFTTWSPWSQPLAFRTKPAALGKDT

B1: FJ1427 P035MP06E05 (VHH)
VHH: QVQLVESGGELVQGGASLRLSCAASGRTFSNANMAWFRQAPEKEREFVALITWSSGSTLYADSVKGRFTISRDNARKMVYLQMNSLKPEDTAVYYCAADGPPYSGTYYRYDTYDYWGQGTQVTVSS
notes: soluble VHH in periplasmic extract; also called 24-MP06E05; clone nr; 517
B2: FJ1427 P035MP02D10 (VHH)
VHH: EVQLVESGGGLVQAGGSLRLSCAASGRTFSSDAKAWFRQAPGKEREFVAAITWAGRGTDYADSVKDRFTITRDNAKNMVYLQMSSLKPEDTAVYYCALNPTGVIGPGFRNSNRYDYWGQGTQVTVAS
notes: soluble VHH in periplasmic extract; also called clone nr
B3: FJ1427_P035MP02A01 (VHH)
VHH: QVQLVESGGGLVQTGGSLRLSCVVSGSHFISDVMGWYRQVPGKQRELVADMADGGSAKYGDSVKGRFTILRDSVKNTVYLQMSSLNPEDTGVYYCKAGLWITGRHSDYWGQGTQVTVSS
notes: soluble VHH in periplasmic extract; also called clone nr; 97
B4: FJ1427_P035MP02B02 (VHH)
VHH: B3 VHH with Q1E, G10T, L70V, T102K, S118T
notes: as for B2
B5: FJ1427 P035MP02G02 (VHH)
VHH: B3 VHH with T14P, V23A, V24A, A57V, Y79T, S106F, T113I, S118T
notes: as for B2
B6: FJ1427_P035MP02G01 (VHH)
VHH: B3 VHH with V23A, H28R, G60A, T68S, V74A, N86K, V92I, T102A
notes: as for B2
B7: FJ1427_P035MP06F05 (VHH)
VHH: QVQLVESGGGLVQTGDSLRLSCAASGRSLDTTYIAWFRQAPGKERDFLAYISPRFSHTWYADSVKGRFTISRNIAKRTVDLEMNSLEPEDTAVYYCAAREHSGSTAWEHYDHWGQGTQVTVSS
notes: soluble VHH in periplasmic extract; also called 25-MP06F05; clone nr
B8: FJ1427_P035MP02C09 (VHH)
VHH: QVQLQESGGGLVQAGGSLRLSCVASGSVSSINGMAWYRQGADNQRVLVAAISRVGNTAYGDSVKGRFTISRQNARNTVYLQMNSLKPEDTAVYYCNADSWGGDDYWGQGTQVTVSS
notes: soluble VHH in periplasmic extract; also called 17-MP02C09; clone nr
B9: FJ1427 P035MP02C11 (VHH)
VHH: QVQLVESGGGLVQAGGSLRLSCAVSGDVFVRYTMAWFRQAPGKEREFVASVTDSGRTTEYVDSVKGRFTVSRDNAKNTVYLQMNSLKPEDTAVYYCAANTDYFQIRSLRANTWGQGTQVTVSS
notes: as for B2
B10: FJ1427_P035MP02G07 (VHH)
VHH: B9 VHH with V79A, S85N, R109D, A110L
notes: as for B2
B11: FJ1427_P035MP06F03 (VHH)
VHH: B9 VHH with E59D, D62H, S85N, R106K, R109D
notes: soluble VHH in periplasmic extract; also called 23-MP06F03; clone nr; 502
B12: FJ1427_P035MP02A09 (VHH)
VHH: B9 VHH with V64A
notes: as for B2
B13: FJ1427_P035MP02E07 (VHH)
VHH: B9 VHH with R19G, S21A, V24L, E59D, D62A, K65Q, A75N, R109D, A110R
notes: as for B2
B14: FJ1427 P035MP02F07 (VHH)
VHH: B9 VHH with V24A, E59D, S85N, V93R, R109D
notes: soluble VHH in periplasmic extract; also called clone nr; 150
B15: FJ1427_P035MP06A07 (VHH)
VHH: B9 VHH with V5Q, V24A, V79A, S85N, V93I, R109D, A110L
notes: soluble VHH in periplasmic extract; also called 26-MP06A07; clone nr
B16: FJ1427_P035MP02F08 (VHH)
VHH: QVQLVESGGGLVQAGGSLRLSCAASGSIFSLNTMGWFRQAPGKEREFVAAISRSGGSATYGDSVKGRFTISTNNAKTTVYLQMNSLKPDDTAVYSCAASAAVGWTTRWSTIDFDSWGQGTQVTVSS
notes: as for B2
B17: FJ1427_P035MP02D07 (VHH)
VHH: EVQLVESGGGLVQAGGSLRLSCAASGRSLSTTEMGWFRQAPGKEREFVAAITWSGRGTMYAESVEGRFAVSRENAKNTVYLQMNSLKPEDTAIYYCAAARRGRAAVRSEGGYDFWGQGTQVTVSS
notes: as for B2
B18: FJ1427_P035MP02G10 (VHH)
VHH: B17 VHH with E1Q, S28T, L29F, S54T, A69T, V70I, T78M
notes: as for B2
B19: FJ1427 P035MP02C08 (VHH)
VHH: EVQLVESGGGLVQAGGSLRLSCAASGSTFSRQPMYWFRQAPGKEREFVAAITWSGRGTLYADSVEGRFTISRDNAKNTVYLQMNSLRPDDTAAYYCAAGPYGDAAYRHGRIDSWGQGTQVTVSS
notes: as for B2
B20: FJ1427_P035MP03C03 (VHH)
VHH: QVQLVESGGGLVQPGGSLRLSCAISGGTLDSYGIGWVRQAPGKQREGVSCMSRSDDRTYYADSVKGRFTISKDSAKNTVYLQMTSLKPEDTAVYYCAAVDAYGCSLVQPTTYDFWGLGTQVTVSS
notes: soluble VHH in periplasmic extract; also called 18-MP03C03; clone nr
B21: FJ1427 P035MP02A10 (VHH)
VHH: QLQLVESGGGLVQTGTSLRLSCAASGHTSRINAMGWFRQFPGKEREFVAAISRNGGSTVYVDSVKGRFTISRDNAKSTVYLQMNSLKPEDTAVYYCTATDAVGWTTRWMTADFGFWGQGTQVTVSS
notes: as for B2
B22: FJ1427_P035MP02H01 (VHH)
VHH: QVQLVESGGGLVQPGGSLGLSCAASGFTFDNYAMSWVRQAPGKGLEWVSSITGAGRGTHYADSVKGRFTISRDNAKNTLYLQMNSLKPEDTAVYYCAKYSSSTYYPPTPARGTDYRGPGTQVTVSS
notes: as for B2
B23: FJ1427 P035MP02E11 (VHH)
VHH: QVQLQESGGGLVQAGGSLRLSCAASGRTFSNYVMAWFRQAPGKEREFVGAITQTGRGTFYADSVEGRFTISRINDKNTVYLQMNSLKPEDTAVYYCSAPRSGRAGTRNQMDYEYWGQGTQVTVSS
notes: as for B2
B24: FJ1427_P035MP02H08 (VHH)
VHH: EVQLVESGGGLVQAGDSLRISCAASGRIFSNYAMGWFRQAPGKETEFVAGITHLTSTTHYADSVKGRFTISRDNAKNTMHLQMNNLKPEDTALYYCAADRNIKITADWSYWGQGTQVTVAS
notes: soluble VHH in periplasmic extract; also called clone nr; 160
B25: FJ1427 P035MP02D11 (VHH)
VHH: B24 VHH with E1Q, V5Q
notes: soluble VHH in periplasmic extract; also called clone nr; 180
B26: FJ1427 P035MP02D02 (VHH)
VHH: QVQLVESGGGLVQVGGSLSVSCAASGRSFDSITMAYFRQAPGNEREFIAGINFSGSRTAYGDSVKGRFTISRDNAKNTVFLQMNSLNPEDTAVYYCAASPRGFYGPGHALYDYWGQGTQVTVSS
notes: as for B2
B27: FJ1427_P035MP03F10 (VHH)
VHH: EVQLVESGGGLVQAGGSLRLSCAASGRDFSSYAMGWFRQAPGKEREFVVAITWTKRSTDFPDSVKGRFTISRDNAKNTVYLDMNSLKPEDTAVYYCASARGLPVTPLGDIIYWGEGTLVTVSS
notes: soluble VHH in periplasmic extract; also called 20-MP03F10; clone nr; 270
B28: FJ1427_P035MP03F08 (VHH)
VHH: EVQLVESGGGLVQTGGSLRLSCAASGGTFSRDAMAWFRQVPGKEREFVALISWSGATTNYADSVKGRFAISRDNGKNTVYLQMNRLKPADTAIYYCAADRRPMGSRSYFEPTEYDDWGQGTQVTVSS
notes: soluble VHH in periplasmic extract; also called 19-MP03F08; clone nr
B29: FJ1427_P035MP03F12 (VHH)
VHH: EVQLVESGGGLVQAGGSLRLSCAASGSIFSINAMAWFRQVPGMERELVAAISRDGGASVYRDSVKGRFTISRDNSKNTVYLQMNTLKPEDTAIYVCAATRAIGWTARWITTDFDFWGQGTQVTVSS
notes: soluble VHH in periplasmic extract; also called 22-MP03F12; clone nr

The first assay has as its target T1, human IL-2Rβ. Nature of the assay: P.E. ELISA, coated protein. Put shortly:
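Human or mouse IL-2Rα, IL-2Rβ or IL-2Rγ protein coated directly overnight at 4° C, blocked with 4% Marvel/PBS for 1 hour.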
Take B1: the “P.E. binding ELISA OD” value was 0.355 OD450 nm.
Same read-out and setting: to B2 belongs 0.557 OD450 nm; to B3, 0.311 OD450 nm.
As to B4, the “P.E. binding ELISA OD” value was 0.343 OD450 nm.
The same measure, in the same setting: the result for B5 reads 0.177 OD450 nm.
For B6, the “P.E. binding ELISA OD” value worked out at 0.169 OD450 nm.
Still for that read-out and setting: to B7 belongs 0.159 OD450 nm.
Regarding B8, the “P.E. binding ELISA OD” value stood at 1.21 OD450 nm.
Turning to B9, the “P.E. binding ELISA OD” value was 1.57 OD450 nm.
Same read-out and setting: the result for B10 reads 0.636 OD450 nm; that for B11, 0.54 OD450 nm; that for B12, 1.3 OD450 nm.
As for B13, the “P.E. binding ELISA OD” value turned out to be 0.541 OD450 nm.
Turning to B14, the “P.E. binding ELISA OD” value was 0.848 OD450 nm.
With B15, the “P.E. binding ELISA OD” value turned out to be 1.03 OD450 nm.
For the molecule B16, the “P.E. binding ELISA OD” value was 0.614 OD450 nm.
In the case of B17, the “P.E. binding ELISA OD” value was 0.747 OD450 nm.
Regarding B18, the “P.E. binding ELISA OD” value worked out at 0.974 OD450 nm.
On the same count and under the same terms, the result for B19 reads 0.254 OD450 nm; that for B20, 0.405 OD450 nm; that for B21, 0.359 OD450 nm.
Still for that read-out and setting: the result for B22 reads 0.487 OD450 nm; that for B23, 0.529 OD450 nm; that for B24, 0.885 OD450 nm.
B25: the “P.E. binding ELISA OD” value was 0.463 OD450 nm.
Consider B26, for which the “P.E. binding ELISA OD” value stood at 0.831 OD450 nm.
As for B27, the “P.E. binding ELISA OD” value was found to be 0.497 OD450 nm.
With B28, the “P.E. binding ELISA OD” value was determined as 0.245 OD450 nm.
In the case of B29, the “P.E. binding ELISA OD” value worked out at 0.781 OD450 nm.

In another assay the target is T1, human IL-2Rβ. Nature of the assay: SPR, P.E. off-rate. A digest of the protocol: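 CM5 chip, amine coupling (acetate buffer), ~2500 RU receptor. VHH P.E. flowed at 30 uL/min; off-rate read over 120 s.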
(Surface plasmon resonance follows binding to a sensor surface in real time, without labels.)
In general, koff refers to the rate constant with which the complex falls apart. Low values mean a long-lived complex, high ones a short-lived complex. Molecule B1 returned a koff of 0.000471 s⁻¹.
On to B2, for which the koff amounted to 0.00109 s⁻¹.
B3 displayed a dissociation rate constant (koff) of 0.00023 s⁻¹.
As to B4, the dissociation rate constant (koff) was found to be 0.000164 s⁻¹.
On the same count and under the same terms, to B5 belongs 0.000112 s⁻¹; to B6, 0.000368 s⁻¹; to B7, 0.000836 s⁻¹.
Molecule B8 returned a koff of 0.000848 s⁻¹.
For B9, the koff came out at 0.000433 s⁻¹.
B10: the koff is 0.000259 s⁻¹.
B11 showed a koff of 0.00105 s⁻¹.
Still for that read-out and setting: the result for B12 reads 0.000617 s⁻¹; that for B13, 0.000577 s⁻¹; that for B14, 0.00164 s⁻¹.
The molecule B15 came in with a koff of 0.000363 s⁻¹.
B16: the koff was 0.00153 s⁻¹.
Molecule B17 displayed a koff of 0.000982 s⁻¹.
B18 showed an off-rate constant (koff) of 0.000307 s⁻¹.
In the case of B19, the koff came out at 0.00333 s⁻¹.
Same read-out and setting: to B20 belongs 0.000594 s⁻¹; to B21, 0.00226 s⁻¹.
In the case of B22, the koff came out at 0.00106 s⁻¹.
The molecule B23 had a koff of 0.00188 s⁻¹.
Molecule B24 showed a dissociation rate constant (koff) of 0.000731 s⁻¹.
With B25, the koff was 0.000833 s⁻¹.
The same measure, in the same setting: to B26 belongs 0.000529 s⁻¹.
Still for that read-out and setting: to B27 belongs 0.000595 s⁻¹.
As to B28, the koff worked out at 0.000296 s⁻¹.
As for B29, the dissociation rate constant (koff) turned out to be 0.000419 s⁻¹.
